Data from patent publication US20250059559A1 (FLAGSHIP PIONEERING INNOVATIONS V, published 2025).

B1: Ring 2 ORF1 fused to an N-terminal HIS6-tag (HIS-ORF1) (other)
chain: MPYYYRRRRYNYRRPRWYGRGWIRRPFRRRFRRKRRVRPTYTTIPLKQWQPPYKRTCYIKGQDCLIYYSNLRLGMNSTMYEKSIVPVHWPGGGSFSVSMLTLDALYDIHKLCRNWWTSTNQDLPLVRYKGCKITFYQSTFTDYIVRIHTELPANSNKLTYPNTHPLMMMMSKYKHIIPSRQTRRKKKPYTKIFVKPPPQFENKWYFATDLYKIPLLQIHCTACNLQNPFVKPDKLSNNVTLWSLNTISIQNRNMSVDQGQSWPFKILGTQSFYFYFYTGANLPGDTTQIPVADLLPLTNPRINRPGQSLNEAKITDHITFTEYKNKFTNYWGNPFNKHIQEHLDMILYSLKSPEAIKNEWTTENMKWNQLNNAGTMALTPFNEPIFTQIQYNPDRDTGEDTQLYLLSNATGTGWDPPGIPELILEGFPLWLIYWGFADFQKNLKKVTNIDTNYMLVAKTKFTQKPGTFYLVILNDTFVEGNSPYEKQPLPEDNIKWYPQVQYQLEAQNKLLQTGPFTPNIQGQLSDNISMFYKFYFKWGGSPPKAINVENPAHQIQYPIPRNEHETTSLQSPGEAPESILYSFDYRHGNYTTTALSRISQDWALKDTVSKITEPDRQQLLKQALECLQISEETQEKKEKEVQQLISNLRQQQQLYRERIISLLKDQ
notes: also called Ring 2 HIS-ORF1; not shown: N-terminal HIS6-tag
B2: untagged Ring2 ORF1 (other)
chain: B1 chain
notes: also called LY2 ORF1
B3: Ring2 ORF1 with a deletion of the C-terminus amino acids 611-666 (pRTx-2652), Ring2 AnelloVLP (other)
chain: MPYYYRRRRYNYRRPRWYGRGWIRRPFRRRFRRKRRVRPTYTTIPLKQWQPPYKRTCYIKGQDCLIYYSNLRLGMNSTMYEKSIVPVHWPGGGSFSVSMLTLDALYDIHKLCRNWWTSTNQDLPLVRYKGCKITFYQSTFTDYIVRIHTELPANSNKLTYPNTHPLMMMMSKYKHIIPSRQTRRKKKPYTKIFVKPPPQFENKWYFATDLYKIPLLQIHCTACNLQNPFVKPDKLSNNVTLWSLNTISIQNRNMSVDQGQSWPFKILGTQSFYFYFYTGANLPGDTTQIPVADLLPLTNPRINRPGQSLNEAKITDHITFTEYKNKFTNYWGNPFNKHIQEHLDMILYSLKSPEAIKNEWTTENMKWNQLNNAGTMALTPFNEPIFTQIQYNPDRDTGEDTQLYLLSNATGTGWDPPGIPELILEGFPLWLIYWGFADFQKNLKKVTNIDTNYMLVAKTKFTQKPGTFYLVILNDTFVEGNSPYEKQPLPEDNIKWYPQVQYQLEAQNKLLQTGPFTPNIQGQLSDNISMFYKFYFKWGGSPPKAINVENPAHQIQYPIPRNEHETTSLQSPGEAPESILYSFDYRHGNYTTTALSRISQDWALKDTVSK
notes: also called Ring2 delCterm (Δ611-666) (7047); Ring2 AnelloVLP 2652
B4: Ring 10 ORF1 delARM delCTD (residues 2-45 and 552-672 deleted) (other)
chain: MKIKRLNIVEWQPKSIRKCRIKGMLCLFQTTEDRLSYNFDMYEESIIPEKLPGGGGFSIKNISLYALYQEHIHAHNIFTHTNTDRPLARYTGCSLKFYQSKDIDYVVTYSTSLPLRSSMGMYNSMQPSIHLMQQNKLIVPSKQTQKRRKPYIKKHISPPTQMKSQWYFQHNIANIPLLMIRTTALTLDNYYIGSRQLSTNVTIHTLNTTYIQNRDWGDRNKTYYCQTLGTQRYFLYGTHSTAQNINDIKLQELIPLTNTQDYVQGFDWTEKDKHNITTYKEFLTKGAGNPFHAEWITAQNPVIHTANSPTQIEQIYTASTTTFQNKKLTDLPTPGYIFITPTVSLRYNPYKDLAERNKCYFVRSKINAHGWDPEQHQELINSDLPQWLLLFGYPDYIKRTQNFALVDTNYILVDHCPYTNPEKTPFIPLSTSFIEGRSPYSPSDTHEPDEEDQNRWYPCYQYQQESINSICLSGPGTPKIPKGITAEAKVKYSFNFKWGGDLPPMST
notes: also called Ring 10 delARM delCTD
B5: Ring 10 ORF1 fused to an N-terminal HIS6-tag (HIS-ORF1) (other)
chain: MPWWYRRRSYNPWRRRNWFRRPRKTIYRRYRRRRRWVRRKPFYKRKIKRLNIVEWQPKSIRKCRIKGMLCLFQTTEDRLSYNFDMYEESIIPEKLPGGGGFSIKNISLYALYQEHIHAHNIFTHTNTDRPLARYTGCSLKFYQSKDIDYVVTYSTSLPLRSSMGMYNSMQPSIHLMQQNKLIVPSKQTQKRRKPYIKKHISPPTQMKSQWYFQHNIANIPLLMIRTTALTLDNYYIGSRQLSTNVTIHTLNTTYIQNRDWGDRNKTYYCQTLGTQRYFLYGTHSTAQNINDIKLQELIPLTNTQDYVQGFDWTEKDKHNITTYKEFLTKGAGNPFHAEWITAQNPVIHTANSPTQIEQIYTASTTTFQNKKLTDLPTPGYIFITPTVSLRYNPYKDLAERNKCYFVRSKINAHGWDPEQHQELINSDLPQWLLLFGYPDYIKRTQNFALVDTNYILVDHCPYTNPEKTPFIPLSTSFIEGRSPYSPSDTHEPDEEDQNRWYPCYQYQQESINSICLSGPGTPKIPKGITAEAKVKYSFNFKWGGDLPPMSTITNPTDQPTYVVPNNFNETTSLQNPTTRPEHFLYSFDERRGQLTEKATKRLLKDWETKETSLLSTEYRFAEPTQTQAPQEDPSSEEEEESNLFERLLRQRTKQLQLKRRIIQTLKDLQKLE
notes: also called Ring 10 HIS-ORF1; not shown: N-terminal HIS6-tag
B6: full-length Ring 10 ORF1 (residues 1-672) (other)
chain: B5 chain
notes: also called Ly1 ORF1; full-length ORF1

What was measured:
[1] = target: the molecule itself; test: self-assembly; negative-stain EM
[2] = target: the molecule itself; test: self-assembly; heparin and SEC purification, EM
self-assembly; EM = target: the molecule itself; test: self-assembly; EM

| Protein | binding result [1] | other results |
| --- | --- | --- |
| B1 | binds | – |
| B2 | – | binding result [2]: binds |
| B3 | – | binding result (self-assembly; EM): binds |
| B4 | binds | – |
| B5 | binds | – |
| B6 | binds | – |
